In PMC9071432:

Biological target: sg-Tu-Ts_dCC (Escherichia coli) (UniProt P0A6P1+P0CE48)
Experiment: EMSA
Settings: 10 mM Mg2+; printed >>30; none (in vitro transcript); EMSA: 50 mM Tris-Cl pH 7.4, 10 mM MgCl2, 50 mM NaCl, 10 mM b-ME, 10% glycerol, 37C 10 min, gel at ~25C; pull-down: Tu-GTP preincubated in 50 mM Tris-Cl pH 7.0 …

UniProt P0A6P1, sequence (P0A6P1 whole entry, chain 1 of 2): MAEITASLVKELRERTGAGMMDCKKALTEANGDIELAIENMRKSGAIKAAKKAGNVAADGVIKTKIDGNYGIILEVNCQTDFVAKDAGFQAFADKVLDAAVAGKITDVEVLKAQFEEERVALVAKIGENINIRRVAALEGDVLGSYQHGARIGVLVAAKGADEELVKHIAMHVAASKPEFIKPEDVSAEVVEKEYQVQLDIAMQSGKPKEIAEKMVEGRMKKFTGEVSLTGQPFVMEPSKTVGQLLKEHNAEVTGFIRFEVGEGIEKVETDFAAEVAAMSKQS
UniProt P0A6P1, sequence (P0CE48 whole entry, chain 2 of 2): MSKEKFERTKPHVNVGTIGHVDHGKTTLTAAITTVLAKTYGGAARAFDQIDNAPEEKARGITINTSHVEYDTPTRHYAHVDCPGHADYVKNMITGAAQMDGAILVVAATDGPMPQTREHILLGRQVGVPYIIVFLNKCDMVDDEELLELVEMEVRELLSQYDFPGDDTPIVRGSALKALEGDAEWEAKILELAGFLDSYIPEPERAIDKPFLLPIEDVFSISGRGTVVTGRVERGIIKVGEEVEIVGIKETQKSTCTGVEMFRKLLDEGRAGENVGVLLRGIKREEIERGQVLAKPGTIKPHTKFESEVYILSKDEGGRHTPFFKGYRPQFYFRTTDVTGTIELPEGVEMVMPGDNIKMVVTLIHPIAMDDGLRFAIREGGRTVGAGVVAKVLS

UGGGGUAUCGCCAAGCGGUAAGGCACCGGAUUCUGAUUCCGGCAUUCCGAGGUUCGAAUCCUCGUACCCCAGCCA [tRNAGln transcript (U1-A72, wt), uncharged]
Kd: > 30 µM
